Data taken from patent US8168188.

Columns and labels:
[1] = target: amyloid β monomers (length not stated) (UniProt P05067); test: assay not stated
[2] = target: amylospheroid 40 (Homo sapiens (Human)) (UniProt P05067); test: SPR (BIAcore 3000), amylospheroid coupled to CM5 chip, antibody in solution
[3] = target: amylospheroid 42 (Homo sapiens (Human)) (UniProt P05067); test: as above

commercialized N-terminal antibodies 82E1 (IBL) (antibody)
reactivity with amyloid β monomers relative to reactivity with amylospheroid [1]: 2 fold

commercialized anti-amyloid β antibody 4G8
Kd [2]: 1.7 nM
Kd [3]: 3.2 nM

commercialized anti-amyloid β antibody 6E10
Kd [2]: 2.9 nM
